According to patent US8143228B2, “Agents capable of downregulating an MSF-A dependent HIF-1α and use thereof in cancer treatment” (Medical Research Fund of Tel Aviv Sourasky Medical Center, priority 2004, dated 2012):

Test system: PC-3 xenograft tumors
Assay: Prostate cancer subcutaneous xenograft model
Format: in vivo, CD1/nude mice
Conditions: PC-3-MSF-A vs PC-3-Neo tumors
Experimental: FIG. 28 is a graph depicting the effect of MSF-A over-expression on tumor volume. A prostate cancer xenograft model was established using PC-3-Neo and PC-3-MSF-A cells (3×10^6) which were implanted subcutaneously into the right hind of nude mice. PBS was used as a negative control. Animals were monitored for tumor volume measurements. Tumor volume measurements were calculated using the formula width^2×length×0.52. Mean±SEM (n=5) of representative experiments is shown.
FIG. 29 is a graph depicting the effect of MSF-A over-expression on tumor weight. A prostate cancer xenograft model was established as described in FIG. 28. Mice were sacrificed after 6 weeks and tumors were processed for tumor weight measurements. Tumors were weighed immediately after dissection. Columns, means; bars, SEM; n=5; *, p<0.05.
FIGS. 30a-h are photomicrographs (FIGS. 30a-f) and graphs (FIGS. 30g-h) depicting MSF-A over-expression in tumors and angiogenesis in a prostate cancer xenograft model. […] FIG. 30g—Ki67 staining (%) was quantified by dividing the number of positive nuclei by the number of total nuclei in 40× magnification field multiplied by 100, of 5 paraffin-embedded tumor sections from each animal per group. […] FIG. 30h—Microvessel density (MVD) was determined by counting the capillaries positive for CD34 staining in 4× magnification field per total section area excluding necrotic areas in 5 paraffin-embedded tumor sections from each animal per group. […]
Immunohistochemistry with anti-CD34 and anti-Ki67—For immunohistochemical staining paraffin-embedded tissue was sectioned at 3 μm and mounted on Superfrost/plus slides (Menzel-Glaser, Braunschweig, Germany). […] For quantitative analysis of Ki67 and CD34 staining, positive staining cells and microvessels were counted and their density expressed as the number of positive cells per total number of cells or capillaries per total section area excluding necrotic areas, respectively. […]

B1: MSF-A: myeloid/lymphoid leukemia septin-like fusion protein A (SEQ ID NO:3), over-expressed from the p3xFlag-MSF-A vector (protein, listed as Homo sapiens)
chain: MKKSYSGGTRTSSGRLRRLGDSSGPALKRSFEVEEVETPNSTPPRRVQTPLLRATVASSTQKFQDLGVKNSEPSARHVDSLSQRSPKASLRRVELSGPKAAEPVSRRTELSIDISSKQVENAGAIGPSRFGLKRAEVLGHKTPEPAPRRTEITIVKPQESAHRRMEPPASKVPEVPTAPATDAAPKRVEIQMPKPAEAPTAPSPAQTLENSEPAPVSQLQSRLEPKPQPPVAEATPRSQEATEAAPSCVGDMADTPRDAGLKQAPASRNEKAPVDFGYVGIDSILEQMRRKAMKQGFEFNIMVVGQSGLGKSTLINTLFKSKISRKSVQPTSEERIPKTIEIKSITHDIEEKGVRMKLTVIDTPGFGDHINNENCWQPIMKFINDQYEKYLQEEVNINRKKRIPDTRVHCCLYFIPATGHSLRPLDIEFMKRLSKVVNIVPVIAKADTLTLEERVHFKQRITADLLSNGIDVYPQKEFDEDSEDRLVNEKFREMIPFAVVGSDHEYQVNGKRILGRKTKWGTIEVENTTHCEFAYLRDLLIRTHMQNIKDITSSIHFEAYRVKRLNEGSSAMANGVEEKEPEAPEM
modifications: 3xFlag tag
Question: With B1 as the molecule, how does the “intratumoral cell proliferation (Ki67) and vascular density (CD34)” value read?
Answer: significantly increased

Question: What about the mean tumor weight (after 6 weeks) of the same molecule?
Answer: significantly heavier

Question: And the “increase of mean tumor volume” value (s.c., nude mice, not statistically significant)?
Answer: about 2 fold
